Reference: patent US20080058270A1 (published 2008)

Target: T1, lecithin:cholesterol acyltransferase (LCAT), purified from human plasma (human, UniProt P04180 25-440)
T1 sequence (looked up): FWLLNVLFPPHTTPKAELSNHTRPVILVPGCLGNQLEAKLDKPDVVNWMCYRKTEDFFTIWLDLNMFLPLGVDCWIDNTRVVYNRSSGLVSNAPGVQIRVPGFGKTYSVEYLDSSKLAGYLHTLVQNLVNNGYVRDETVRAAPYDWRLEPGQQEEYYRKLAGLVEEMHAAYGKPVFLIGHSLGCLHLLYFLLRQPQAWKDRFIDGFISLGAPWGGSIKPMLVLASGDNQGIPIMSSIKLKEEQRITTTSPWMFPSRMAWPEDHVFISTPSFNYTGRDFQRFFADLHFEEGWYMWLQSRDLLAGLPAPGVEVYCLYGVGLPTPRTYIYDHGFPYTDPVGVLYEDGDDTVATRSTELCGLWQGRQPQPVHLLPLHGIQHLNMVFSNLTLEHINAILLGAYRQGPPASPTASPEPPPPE
Assay: cell-based or functional assay

ACTIVITY (%) LCAT: 111%
B1: peptide 237 (peptide)
peptide: LDDLLQKWAEAFNQLLKK
